{"source": "patent US20150259402A1", "molecular_target": "Clostridium difficile toxin B (Clostridium difficile) (UniProt P18177)", "sequence (P18177 2-2366 limits assumed)": "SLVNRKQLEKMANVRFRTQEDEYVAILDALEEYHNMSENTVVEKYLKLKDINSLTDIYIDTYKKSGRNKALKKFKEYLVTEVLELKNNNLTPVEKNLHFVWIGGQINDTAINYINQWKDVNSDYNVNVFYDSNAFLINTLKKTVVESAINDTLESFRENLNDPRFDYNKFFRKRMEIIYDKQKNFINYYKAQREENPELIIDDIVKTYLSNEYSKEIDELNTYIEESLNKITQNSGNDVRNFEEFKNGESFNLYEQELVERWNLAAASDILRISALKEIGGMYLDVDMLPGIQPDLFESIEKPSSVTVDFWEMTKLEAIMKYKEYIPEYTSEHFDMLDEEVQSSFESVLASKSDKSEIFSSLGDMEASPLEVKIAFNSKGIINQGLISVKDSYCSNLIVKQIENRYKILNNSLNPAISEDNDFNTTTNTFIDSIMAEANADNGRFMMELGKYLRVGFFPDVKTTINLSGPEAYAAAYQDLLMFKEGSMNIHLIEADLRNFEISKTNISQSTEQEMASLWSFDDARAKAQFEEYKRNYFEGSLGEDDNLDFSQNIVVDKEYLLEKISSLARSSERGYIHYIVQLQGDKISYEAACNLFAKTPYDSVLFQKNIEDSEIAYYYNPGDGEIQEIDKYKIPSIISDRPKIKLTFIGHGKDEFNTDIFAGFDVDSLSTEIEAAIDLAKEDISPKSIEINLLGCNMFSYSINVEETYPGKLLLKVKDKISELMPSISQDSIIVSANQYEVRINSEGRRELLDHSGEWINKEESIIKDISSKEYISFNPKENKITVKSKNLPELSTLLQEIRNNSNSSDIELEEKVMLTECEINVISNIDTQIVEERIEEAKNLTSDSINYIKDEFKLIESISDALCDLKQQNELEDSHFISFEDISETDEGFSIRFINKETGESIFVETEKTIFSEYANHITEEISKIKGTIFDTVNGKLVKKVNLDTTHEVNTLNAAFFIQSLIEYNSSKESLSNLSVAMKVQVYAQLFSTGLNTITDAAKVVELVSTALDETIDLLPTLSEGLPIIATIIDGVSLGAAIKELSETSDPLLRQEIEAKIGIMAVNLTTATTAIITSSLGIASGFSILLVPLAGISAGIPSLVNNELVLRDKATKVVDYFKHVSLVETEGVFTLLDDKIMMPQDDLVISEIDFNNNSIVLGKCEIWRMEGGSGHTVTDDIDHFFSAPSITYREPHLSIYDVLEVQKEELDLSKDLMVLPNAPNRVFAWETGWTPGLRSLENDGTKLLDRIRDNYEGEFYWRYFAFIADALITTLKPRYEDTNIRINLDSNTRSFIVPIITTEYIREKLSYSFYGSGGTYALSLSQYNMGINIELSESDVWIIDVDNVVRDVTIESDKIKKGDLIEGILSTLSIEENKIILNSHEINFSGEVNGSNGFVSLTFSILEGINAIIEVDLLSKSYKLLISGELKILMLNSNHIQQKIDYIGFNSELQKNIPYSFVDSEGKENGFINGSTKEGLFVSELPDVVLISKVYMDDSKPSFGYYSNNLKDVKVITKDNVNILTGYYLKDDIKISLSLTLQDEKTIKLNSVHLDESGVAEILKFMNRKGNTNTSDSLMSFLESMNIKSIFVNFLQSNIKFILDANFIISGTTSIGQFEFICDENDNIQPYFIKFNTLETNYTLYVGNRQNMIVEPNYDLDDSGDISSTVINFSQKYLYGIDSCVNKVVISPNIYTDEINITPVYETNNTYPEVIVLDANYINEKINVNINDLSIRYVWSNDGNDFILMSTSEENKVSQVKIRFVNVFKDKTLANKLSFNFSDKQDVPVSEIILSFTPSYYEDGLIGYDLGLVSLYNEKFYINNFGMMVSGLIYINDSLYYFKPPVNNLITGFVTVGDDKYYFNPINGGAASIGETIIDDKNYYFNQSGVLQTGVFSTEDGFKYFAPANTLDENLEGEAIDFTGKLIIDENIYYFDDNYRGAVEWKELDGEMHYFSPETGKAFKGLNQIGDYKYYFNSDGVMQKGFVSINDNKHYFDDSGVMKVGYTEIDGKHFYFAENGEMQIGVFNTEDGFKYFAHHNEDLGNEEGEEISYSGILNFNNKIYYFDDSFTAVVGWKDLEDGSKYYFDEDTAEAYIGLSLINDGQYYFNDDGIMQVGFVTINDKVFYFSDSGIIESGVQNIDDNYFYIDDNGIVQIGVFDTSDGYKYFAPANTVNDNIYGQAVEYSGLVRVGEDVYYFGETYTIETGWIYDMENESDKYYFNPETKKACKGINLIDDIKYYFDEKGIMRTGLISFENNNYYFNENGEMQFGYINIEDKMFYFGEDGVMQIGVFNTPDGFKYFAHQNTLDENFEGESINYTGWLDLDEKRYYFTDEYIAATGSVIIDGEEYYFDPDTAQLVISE", "assay": "cell-based or functional assay", "data": [{"substance": "MDX1388 (antibody)", "values": [{"measurement": "neutralizing activity (EC50 value), rounding of toxin B-exposed IMR-90 cells", "result": "< 100", "unit": "ng/mL"}]}]}
